Experimental findings from the supplement of paper PMC12042874 are described below.

± gives the uncertainty stated by the source.

The nature of the data set: amyloid nucleation score (Sup35N fusion, yeast selection) (log enrichment); library NNK3; higher = more nucleation; inactive = no reads after selection. An outline of the steps: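 Nucleation score: DiMSum log enrichment of output over input reads, centred on the mode score of non-aggregating sequences. Only sequences with at least 100 input reads were kept. Reads came from Illumina sequencing of plasmid inserts before and after 7 days of growth at 30°C without adenine and uracil, in psi-negative yeast expressing Sup35N fused to peptides of 20 random codons after 24 hours of induction with 100 μM copper sulfate.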
Regarding LLKRKLIVAFKKSMLFDFMV, the amyloid nucleation score entry was “inactive”.

For the substance YAARNWIVQVD, the amyloid nucleation score result is “inactive”.

ASQAALFGKIHYEASY: the amyloid nucleation score entry was “inactive”.

For IRTTSPHHDSLSNEGVIDML, the amyloid nucleation score result is “inactive”.

On to ILENVA, for which the amyloid nucleation score entry was “inactive”.

Take RYSDHRGIKAVGFAHCFL: the amyloid nucleation score entry is “inactive”.

The substance VFFSWPMARKCEGSEDHPNF came in with an amyloid nucleation score of 0.005 ± 0.98.

Take NLVYLLLRLYMMTFYQQRCP: the amyloid nucleation score result was “inactive”.

VSLMP: the amyloid nucleation score result is “inactive”.

PCRKMIQKIVQM: the amyloid nucleation score result is “inactive”.

REITSWLDIDFL: the amyloid nucleation score entry is “inactive”.

GVPIWCEKYKLILQKNWLFK: the amyloid nucleation score entry was “inactive”.

On to ARLPFCAISLTRYGWFSCRC, for which the amyloid nucleation score result was “inactive”.

With PLSNNKVVWWYYL, the amyloid nucleation score result is “inactive”.

QNVGIVYRTST registered an amyloid nucleation score of -0.928 ± 2.5.

In the case of PPRLTS, the amyloid nucleation score entry is “inactive”.

LAITNIEWSLFIQWTLI: the amyloid nucleation score result was “inactive”.

For the substance GLSDGWVGHRSYGSENVLLK, the amyloid nucleation score entry was “inactive”.

As to NAIGEISSVYSCTL, the amyloid nucleation score entry was “inactive”.

As for SLYYSTCIK, the amyloid nucleation score result is “inactive”.

Take LRWRHGCIR: the amyloid nucleation score entry was “inactive”.

Consider KENFASVCCGCYPMQPPGIM, for which the amyloid nucleation score entry was “inactive”.

On to VQGLGGNWW, for which the amyloid nucleation score entry is “inactive”.

FWAYERVGSRSAFGWLGREA returned an amyloid nucleation score of 0.705 ± 0.21.

Regarding FRFTFLMRNML, the amyloid nucleation score result was “inactive”.

RVYLRGRIDFKGTTFGGFEK yielded an amyloid nucleation score of 1.63 ± 0.059.

As to TLSELLR, the amyloid nucleation score entry is “inactive”.

NMTVSHWGLTMSRL came in with an amyloid nucleation score of 1.26 ± 0.11.

For RYHNFLYGLGNPMG, the amyloid nucleation score result was “inactive”.

For WESLIGLWASAGMIWVHWGS, the amyloid nucleation score entry is “inactive”.

Consider CVWAYLRLHGKWAF, for which the amyloid nucleation score amounted to 0.598 ± 0.34.

On to VASIFRVYAVVGWSVVLVGV, for which the amyloid nucleation score entry was “inactive”.

GTIRVYIKTNDATVIGEHHA: the amyloid nucleation score came out at 1.21 ± 0.13.

MIQIIMLEGGLSCLRHLVIT came in with an amyloid nucleation score of -0.362 ± 0.8.

Consider YLHYRHYSSVCFYFSSNISN, for which the amyloid nucleation score entry was “inactive”.

FSFPMEIWKGFVYRTA: the amyloid nucleation score was 3.16 ± 0.081.

On to LNSYQDYSRGVLLKRKALLY, for which the amyloid nucleation score result was “inactive”.

As for TCEWLSNYFKDLFIMVLSIS, the amyloid nucleation score result is “inactive”.

For the substance HTMAHWITKEAAFLI, the amyloid nucleation score entry was “inactive”.

As for YNRMHMDCTKRIE, the amyloid nucleation score result was “inactive”.

In the case of SNWSWQSPW, the amyloid nucleation score result is “inactive”.

Regarding KRKRVK, the amyloid nucleation score entry was “inactive”.

ALKSPDSD: the amyloid nucleation score entry was “inactive”.

In turn, TMTIDESTWVVSANMSYRMK had an amyloid nucleation score of 1.37 ± 0.1.

For the substance SRISKMSELIYRLRYIVILV, the amyloid nucleation score result was “inactive”.

On to GVYHIQPCMRCRLHKGGSDS, for which the amyloid nucleation score entry was “inactive”.

IQQGKVYKGTLLLTAYMTSE: the amyloid nucleation score was 1.11 ± 0.096.

Turning to SVGLDRTSQEHSAYVGNVHS, the amyloid nucleation score entry was “inactive”.

Turning to SEVFFGSVPNDARDKLNTNP, the amyloid nucleation score entry was “inactive”.

Substance SQCYCVYAGVVT came in with an amyloid nucleation score of 0.034 ± 0.51.

As for SESLMYRAKRVSTHYNFMCL, the amyloid nucleation score result was “inactive”.

Consider NTNRSLENDCIRALRQCGLV, for which the amyloid nucleation score result is “inactive”.

Turning to ERIIFYCNRVRRMLYGGLVR, the amyloid nucleation score entry was “inactive”.

Take NTPFFGTGLSQTIAVKHLQM: the amyloid nucleation score entry was “inactive”.

Regarding NSSLY, the amyloid nucleation score result is “inactive”.

As to SFNTLIILSILFVLRQCGTR, the amyloid nucleation score result is “inactive”.

As to EGRFLKLFWSGSL, the amyloid nucleation score is -0.108 ± 0.51.

MSVLC: the amyloid nucleation score result was “inactive”.

Consider ICLDKITDAIYMDYNRAFSC, for which the amyloid nucleation score result was “inactive”.

As to VGMISCKTILEFGGMSSFVM, the amyloid nucleation score result was “inactive”.

Turning to PVDKRTSTAVDRFARAMNCQ, the amyloid nucleation score entry is “inactive”.

For MCYLSSSDAGDVIPAWC, the amyloid nucleation score result is “inactive”.

On to LTRVTMGYIAEIQWNFMSKN, for which the amyloid nucleation score amounted to 1.56 ± 0.066.

Turning to TLFERRCSGTIMHRIQRREF, the amyloid nucleation score result was “inactive”.

As for GASVGFEVHCNFVVNLNVQH, the amyloid nucleation score stood at 2.18 ± 0.066.

In turn, VKNTGLSSNHLEH yielded an amyloid nucleation score of 1.11 ± 0.13.

As to VWPQNLNPICKSNLTRCVGC, the amyloid nucleation score result was “inactive”.

Take YTRSCSMRLF: the amyloid nucleation score entry is “inactive”.

Take YSNSLRRTSPQEHS: the amyloid nucleation score result was “inactive”.

With MLITSMLCIHV, the amyloid nucleation score entry is “inactive”.

For LIKCPIRYDDYKRPWLAS, the amyloid nucleation score result was “inactive”.

For YILGKSKSPFLLKCAVKI, the amyloid nucleation score result was “inactive”.

DFHSLKNDF: the amyloid nucleation score result was “inactive”.

Turning to SGPRDSRLCRDSSVSGVYLS, the amyloid nucleation score result was “inactive”.

Regarding GTQRVAIEDSGVIR, the amyloid nucleation score entry was “inactive”.

As for ASYRAVNVDTGRIWPEFQLG, the amyloid nucleation score result was “inactive”.

As to CSKNRQSELRALGSYI, the amyloid nucleation score entry is “inactive”.

Take DVDRTSCGGVSVRV: the amyloid nucleation score result is “inactive”.

On to ARLAYMYMEDGKCSTHRGKF, for which the amyloid nucleation score entry is “inactive”.

As for NINIMPG, the amyloid nucleation score entry was “inactive”.

On to KRVKWNCRGLDDSMLFFWVV, for which the amyloid nucleation score result is “inactive”.

For IFPFFVSL, the amyloid nucleation score result is “inactive”.

On to NWSLSKSRHIPLGTCRGISY, for which the amyloid nucleation score was -0.201 ± 0.84.

For the substance SSHGSRGITVDT, the amyloid nucleation score result was “inactive”.

For HHLNSYFRISFI, the amyloid nucleation score result was “inactive”.

As for LLLRFFRYLGYKLMRTIE, the amyloid nucleation score entry is “inactive”.

On to LDVIFSKTFMEIVTLVVSLD, for which the amyloid nucleation score entry was “inactive”.

Regarding CHEKANQELRHPYGCECVFV, the amyloid nucleation score result is “inactive”.

Turning to VEFSVFGERNVIYGVLSWRS, the amyloid nucleation score came out at 1.12 ± 0.12.

Substance QCCIMAITLDYFASPRYIVR showed an amyloid nucleation score of 0.022 ± 0.52.

Take TVPDRDFMFIRIRSHCYVVD: the amyloid nucleation score entry is “inactive”.

With YNRYV, the amyloid nucleation score entry was “inactive”.

As to SVLFMRRLYSRMA, the amyloid nucleation score result is “inactive”.

As for CNAYLAYARYIYTHGWPRSL, the amyloid nucleation score entry was “inactive”.

KRPWTVFFVFFIGFATLL yielded an amyloid nucleation score of 1.15 ± 0.1.

ICTPENT yielded an amyloid nucleation score of -0.303 ± 0.9.

For the substance TSVTSTSLSGSLSAV, the amyloid nucleation score result is “inactive”.

Consider RPAIRSFFVMVSVKLR, for which the amyloid nucleation score result was “inactive”.

Turning to MFEYLWEENMSLIYSKVDCG, the amyloid nucleation score entry is “inactive”.

With RTYYASWENDSMGAVSYCAS, the amyloid nucleation score result is “inactive”.

Turning to CRTQMPSIFDL, the amyloid nucleation score result was “inactive”.

Regarding IRGEFLQQPFIVDRNHVRWL, the amyloid nucleation score entry is “inactive”.

Substance SNSVFIWYWPEWVEDWSSWL registered an amyloid nucleation score of 0.607 ± 0.16.

Consider MGKTMILKLLY, for which the amyloid nucleation score result was “inactive”.

For the substance RDYLYGNDMSNVKGYRRRWY, the amyloid nucleation score result is “inactive”.

For VPCTWDLFYIGRSMWWFLTM, the amyloid nucleation score entry is “inactive”.

Turning to SHMEWFT, the amyloid nucleation score was found to be 1.92 ± 0.088.

On to EALLSSLIIFIDQRGVCEFV, for which the amyloid nucleation score entry was “inactive”.

Turning to RGTSSQ, the amyloid nucleation score entry is “inactive”.

On to LPSYLESYYCVRVISGFYLS, for which the amyloid nucleation score entry was “inactive”.

MCRTMLSPLMR: the amyloid nucleation score entry was “inactive”.

FKRGTCISSSNYNIYCYWKC: the amyloid nucleation score entry was “inactive”.

For NCGRNRNPPTESCPEVGPRL, the amyloid nucleation score entry was “inactive”.

On to LVVATRRLMYGHRKVYAWVD, for which the amyloid nucleation score entry is “inactive”.

As to SRFVYSSGY, the amyloid nucleation score entry is “inactive”.

On to KKYVETVSS, for which the amyloid nucleation score result was “inactive”.

Turning to WSCNN, the amyloid nucleation score entry was “inactive”.

As to CKMLNYFLCT, the amyloid nucleation score worked out at 1.1 ± 0.13.

As to RWDNMFLSWRYCWVYAVSFS, the amyloid nucleation score result is “inactive”.

With FMEYFTCGV, the amyloid nucleation score result was “inactive”.

In the case of KWAWVGISCPRYRSRLGYFS, the amyloid nucleation score entry is “inactive”.

Consider GTVGHYRLST, for which the amyloid nucleation score entry is “inactive”.

In the case of VYMYVALPRSEDHNVF, the amyloid nucleation score result was “inactive”.

For CLVSTGYHVRCVIVFMTTQG, the amyloid nucleation score result is “inactive”.

As for TYFLSDWWRDRSNWLWFLAH, the amyloid nucleation score result is “inactive”.

Take KQPCCNVFCC: the amyloid nucleation score was 2.42 ± 0.069.

In the case of TVTLRRYLSMERPYTSIFSI, the amyloid nucleation score result is “inactive”.

Consider TTMWTIKENFTWIVITVDSI, for which the amyloid nucleation score result is “inactive”.

Turning to LSVTRNACTEPFRGFLIGLY, the amyloid nucleation score result was “inactive”.

As to SEVFNQLGTARSNMARRACA, the amyloid nucleation score entry is “inactive”.

Consider MTAMSFKGYAVIGGVIDRCR, for which the amyloid nucleation score result was “inactive”.

As for VFYIVMMLVRAPIFFNGVPT, the amyloid nucleation score entry is “inactive”.

Substance FSTVKQLYCFMTPIYASFNS showed an amyloid nucleation score of -0.531 ± 1.
